{
  "source": "the nanobody polyreactivity screen of Harvey et al. (2022)",
  "data": [
    {"test": "yeast display, Sf9 membrane polyspecificity reagent, FACS + sequencing; frameworks hold sequencing errors", "method_in_brief": "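Nanobodies came from a synthetic yeast display library in Saccharomyces cerevisiae BJ5465, induced with galactose for 36–48 hours and stained for 1 hour at 4 °C with 10% biotinylated, detergent-solubilized Sf9 membrane reagent. Cells were enriched on streptavidin microbeads and then FACS-sorted, with low and high (top ~1%) gates set on anti-HA fluorescence for expression and streptavidin fluorescence for reagent binding. Each polyreactivity label reflects the gate a clone came from. Genes were amplified by colony PCR, sequenced by MiSeq 2 × 250 and filtered by CDR length.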", "values": [
      {"sequence": "QVQLVESGGGLVQAGGSLRLSCAPSGSTFYSYAMGGYRQAPGKERELVAAITVSGTSTYYADSVKGRFTISRDNAKNTVYLQMNSLKPEDTAVYYCAARPRRRYYGYDSWGQGTQVTVSS", "polyreactivity (PSR sort gate)": "high polyreactivity"},
      {"sequence": "QVQLVESGGGLVQAGGSLRLSCAPSGSTLFYNAMGCYRQSPGKETELVATISGGGVSTYYADSVNGRFRISRDNAKNSVYLQMYSLKPEDTAVYYCAAAGWSEGGYDYWGQGTQVTVSS", "polyreactivity (PSR sort gate)": "low polyreactivity"},
      {"sequence": "QVQLVESGGGLVQAGGSLRLSCAPSGSTSFSNDMGWYRQAPGKERELVAAIRSGGSTDYADSVKGRFTISRDNAKNTVYLQMNSLKPEDTEVYYFNATQYDAVYPGYARLYDYWGQGTQVTVSS", "polyreactivity (PSR sort gate)": "low polyreactivity"},
      {"sequence": "QVQLVESGGGLVQAGGSLRLSCAPSGSTYSRYAMGWYRQAPGKERELVAAISRSGGTTNYADSVKWRFTISRDNAKNTVYLQMNSLKPEDTAVYYCAAYLPFRQGRYGYEYWGQGTQVTVSS", "polyreactivity (PSR sort gate)": "high polyreactivity"},
      {"sequence": "QVQLVESGGGLVQAGGSLRLSCAPSGYIPYWYAMGWYRQAPGKERELVAAIDWSGASTNYADSVKGRFTISRDNAKNTVYLQMNSLKPEDTAVYYCAADAVSPDYFVWGDYWGQGTQVTVSS", "polyreactivity (PSR sort gate)": "high polyreactivity"},
      {"sequence": "QVQLVESGGGLVQAGGSLRLSCAPSVSINNHYAMGWYRQAPGKERELVAAISRSGGLTYYADSVKGRFTISRDNAKNTVYLQMNCLIAEDTAVYYCDAGTSWPWYQRDYWGQGTQVTVSS", "polyreactivity (PSR sort gate)": "low polyreactivity"},
      {"sequence": "QVQLVESGGGLVQAGGSLRLSCASGLTFYRYAMGWYRQAPGKERELVAAINVRGGSTYYADSVKGRFTISRDNAKNTVYLQMNSLKPEETAVYYCAAYYPGFSYRYDYWGQGTQVTVSS", "polyreactivity (PSR sort gate)": "low polyreactivity"},
      {"sequence": "QVQLVESGGGLVQAGGSLRLSCASSGFIFASYAMGWYRQAPGKERELVAAISYRGGTTYYADSVKGRFTISRDNAKNTVYLQMNSLKPEDTAVYYCAADSPENRYNYWGQGTQVTVSS", "polyreactivity (PSR sort gate)": "high polyreactivity"},
      {"sequence": "QVQLVESGGGLVQAGGSLRLSCASSGFIFPLYAMGWYRQAPGKERELVAAINWRGGTTYYADSVKGRFTISRDNAKNTVYLQINSLKPDDTAVYYCAATHWAYSRVPYDYWGQGTQVSVSS", "polyreactivity (PSR sort gate)": "high polyreactivity"},
      {"sequence": "QVQLVESGGGLVQAGGSLRLSCASSGFTFLINAMGWYRQAPGKERDLVAAIRSGGSTNYADSVKGRFTISRDNAKNTVYLQMNSLKPEDTAVYYCAARRYYPYKYRYGYWGQCTQVTVSS", "polyreactivity (PSR sort gate)": "high polyreactivity"},
      {"sequence": "QVQLVESGGGLVQAGGSLRLSCASSGFTFTSYAMGWYRQAPGKERELVAAISSSGGSTYYADSVKGRFTISRDNAKNTVYLQMNSLKPEDTAVYYCAAEYGYGEMDSWGQGTQVTVSS", "polyreactivity (PSR sort gate)": "high polyreactivity"},
      {"sequence": "QVQLVESGGGLVQAGGSLRLSCASSGFTFYIYVMGWYRQAPGKEREWVAAISSRGGSTYYADSVKGRFTISRDNAKNTVNSQMNSLKPEDTAVYYCNAVHYVLYGDYDYWGQGTQVTVSS", "polyreactivity (PSR sort gate)": "high polyreactivity"},
      {"sequence": "QVQLVESGGGLVQAGGSLRLSCASSGFTINWNDMGWYRQAPGKERELVAAISGGASTYYADSVKGRFTISRDNAKNTVYLQMNSLKPEDTAVYYCAADLDEWGYLFDYWGQGTQVTVSS", "polyreactivity (PSR sort gate)": "low polyreactivity"},
      {"sequence": "QVQLVESGGGLVQAGGSLRLSCASSGFTLYGYTKGWYRQAPGKERELVAAISGSGGRTYYADSVKGRFTISRDNAKNTVYLHMNTLKPEDNAVYYCAADSRGTCDGYDYWGQGTQVTVSS", "polyreactivity (PSR sort gate)": "high polyreactivity"},
      {"sequence": "QVQLVESGGGLVQAGGSLRLSCASSGITFDKYAMGWYRQAPGKERELVAAISGSDGSTYYADSVKGRFTISRDNAKNTVYLQNNSLKPEDTAVYYCAAESEYAGTYEYDYWGQGNQVTVSS", "polyreactivity (PSR sort gate)": "low polyreactivity"},
      {"sequence": "QVQLVESGGGLVQAGGSLRLSCASSGITFILYAMGWYRQAPGKDRELVASITSGGSTDYADSVKGRFTISRDNAKNTVYFQMNSLKPEDTAVYYCAARYVYPYWYGDYYWGQGTQVTVSS", "polyreactivity (PSR sort gate)": "low polyreactivity"},
      {"sequence": "QVQLVESGGGLVQAGGSLRLSCASSGLIFYHYAMGWYRQAPGKERELVAAISWRGGTTYYADSVKGRFTISSDNAKNTVYLQMNSLKPEDTAVYYCNALLRSPGLGYDYWGQGTQVTVSS", "polyreactivity (PSR sort gate)": "high polyreactivity"},
      {"sequence": "QVQLVESGGGLVQAGGSLRLSCASSGLTFWPYVKGWYRQAPGKERELVAAIEDTGITYYADSVKGRFTISRDNAKNTVYLQMNSLTPDDTAVYYCATDWDYYFPWIYPSDAGPEDGYWGQGTQVTVSS", "polyreactivity (PSR sort gate)": "low polyreactivity"},
      {"sequence": "QVQLVESGGGLVQAGGSLRLSCASSGNTFKYDAMGWYRQAPGKERELVAAITWNGARTYYADSVKGRFTISRDNANYTGYLQMNRLKAEVTAVYYCNARQGYRFDYWGQGTQVSVSS", "polyreactivity (PSR sort gate)": "high polyreactivity"},
      {"sequence": "QVQLVESGGGLVQAGGSLRLSCASSGRIFDGYAMVWYRQAPGKERELVATISSGGSTYYADSVKGRFTISRDNAKNTVYLQMNSLKPEDTAVYYCAADSWVQFDYWGQGTQVTVSS", "polyreactivity (PSR sort gate)": "low polyreactivity"},
      {"sequence": "QVQLVESGGGLVQAGGSLRLSCASSGRIFDYNAKGWYRQAPGKERELVAAINSGGSTYADSVKGRFTISRDNAKNTVDLQMNSLKPEDTAVYYCAKSLGQTDWEYDSWGQGTQVTVSS", "polyreactivity (PSR sort gate)": "low polyreactivity"},
      {"sequence": "QVQLVESGGGLVQAGGSLRLSCASSGRIFFTNAMGWYRQAPGKERELVAAIRSSGGRTYYADSVKGRFTISRDNAKNTVYLQMNSLKPEDTAVYYCNVVDGRHISHYNYWGQGTQVTVSS", "polyreactivity (PSR sort gate)": "high polyreactivity"},
      {"sequence": "QVQLVESGGGLVQAGGSLRLSCASSGRIFGLYAMGWNRQAPGKERELVAAISRGGGSTYYADSVKGRFTISRDNAKNTVYLQMNSLKPEDTAVYYCATGLGYFSRLDYWGQGTQVTVSS", "polyreactivity (PSR sort gate)": "low polyreactivity"},
      {"sequence": "QVQLVESGGGLVQAGGSLRLSCASSGRIFGTYAMGWYRQAPGKERELVARIRTSGSTNYADSVKGRFTISRDNAKNTVYLQMNSLKPEDTAVYYCAADRRYYSAYEYWGQGTQVTVSS", "polyreactivity (PSR sort gate)": "high polyreactivity"},
      {"sequence": "QVQLVESGGGLVQAGGSLRLSCASSGRIFGVYAMGWYRQAPGKERELVAAITRGASTYYADSVKGRFTISRDNAKNTVYLQMNSLKPEDTAVYYCAVSQDRGIYRKYDYWGQGTQVTVSS", "polyreactivity (PSR sort gate)": "high polyreactivity"},
      {"sequence": "QVQLVESGGGLVQAGGSLRLSCASSGRIFRVNGMGWYRQAPGKESELVATITGSGGSTYYADSVKGRFTISRDNAKNTVYLQMNSLKPEDTAVYYCAAVSYWPTDRYYSWGQGTQVTVSS", "polyreactivity (PSR sort gate)": "low polyreactivity"},
      {"sequence": "QVQLVESGGGLVQAGGSLRLSCASSGRIFRYNTMGWYRPAPGKERELVADITSSDSSTYYADSVKGRFTISRDNAKNTVDLQMNSLKPEETAVYYCAARDSGYGWRYSYWGQGTQVTVSA", "polyreactivity (PSR sort gate)": "low polyreactivity"},
      {"sequence": "QVQLVESGGGLVQAGGSLRLSCASSGRIFWRNTMGWYRQAPVKETEFVASINGSGGSTSYADSVKGRFTISRDNAMNTVYLQMISLKPEDTEVDYCATDVTYQDVQLDYWGQRTQVTVSS", "polyreactivity (PSR sort gate)": "low polyreactivity"},
      {"sequence": "QVQLVESGGGLVQAGGSLRLSCASSGRIFYYNAMGWYRQAPGKERELVAAISKRGGITSYADSVKGRFTISRDNAKNTVYLPMNSLKPEDTAVYYCAADLVPWRGGYYYWGQGTLVTVSS", "polyreactivity (PSR sort gate)": "high polyreactivity"},
      {"sequence": "QVQLVESGGGLVQAGGSLRLSCASSGRNFCIYGMAWYRQAPGKERELVAAISYDSGSTYYADSVTGRFTISRDNAKNTVYLQMNSLNPEDTAVYYCAAEWGLVIYSTYGYDYWGQGTQVTVSS", "polyreactivity (PSR sort gate)": "low polyreactivity"},
      {"sequence": "QVQLVESGGGLVQAGGSLRLSCASSGRTFFRNPMGWYRQAPGKERELVAAISKRGGSTYYADSVKGRFTISRDNAKNTVYLQMISLSPEDTAVYYCNADPRTVGLDYWGQGTQVTVSS", "polyreactivity (PSR sort gate)": "high polyreactivity"},
      {"sequence": "QVQLVESGGGLVQAGGSLRLSCASSGRTFLINAMGWYRQAPWKERELVATISRSGGSTYYADSVKGRFTISRDNAKITVYLQMNSLKPEDTAVYYCAALVRIGYYYWGQGTQVTVSS", "polyreactivity (PSR sort gate)": "high polyreactivity"},
      {"sequence": "QVQLVESGGGLVQAGGSLRLSCASSGRTFRYYAMGWYRQAPGKERELVAAIRSGGITNYADSVKGRFTISRDNAKNTVYLQMNSLKPEDTAVYYCAVETPSTWFSGWGYDYDYWGQGTQVTVSS", "polyreactivity (PSR sort gate)": "high polyreactivity"},
      {"sequence": "QVQLVESGGGLVQAGGSLRLSCASSGRTFTHYAMGWYRQAPGKERELVASISDGGRTHYADSVTGRFTISRDNAKNTVYLQMNSLKPEDTAVYYCATDRYPTRRYDYWGQGTQVTVSS", "polyreactivity (PSR sort gate)": "low polyreactivity"},
      {"sequence": "QVQLVESGGGLVQAGGSLRLSCASSGRTFVWNAMGWYRQAPGKERELVAAIDWSGGSTYYADSVKGRFTISRDYAKITVYLQMNSLKPEDTAVYYCAKEYWYRALWYNYWGQGTQVTVSS", "polyreactivity (PSR sort gate)": "high polyreactivity"},
      {"sequence": "QVQLVESGGGLVQAGGSLRLSCASSGRTFYQNAMGWYRQAPGKESEFVAAITGGTGSTHYADSVKGRFTISRDNAKNTVYLQMNSLKPEDTAVYYCATRYLFGFSRYDYWGQGTQVTVSS", "polyreactivity (PSR sort gate)": "low polyreactivity"},
      {"sequence": "QVQLVESGGGLVQAGGSLRLSCASSGSIFAYNTMGRYRQAPGKERELVAAITGRAGSTYYADSVKGRFTISRDNAKNTFYLQMNSLKPEDTAVYYCAAEYRFAFPLWLDYWGQGTQVTVSS", "polyreactivity (PSR sort gate)": "high polyreactivity"},
      {"sequence": "QVQLVESGGGLVQAGGSLRLSCASSGSIFGSYAMGWYRQPPGKESELDAAITGIGGSTYYADSVKGRFTISRDNAKNTVYLQMNSLKPEATAVYYCATRDRYRAPVVGGNYWVQGTQVTVSS", "polyreactivity (PSR sort gate)": "high polyreactivity"},
      {"sequence": "QVQLVESGGGLVQAGGSLRLSCASSGSIFKANGMGWYRQAPGKEREFVAAITRSGATTYYADSVKGRFTISRDNAKNTVYLQMNSLKTEDTAVYYCNVKAWRDLYYAGFDYWGQGTQVTVSS", "polyreactivity (PSR sort gate)": "low polyreactivity"},
      {"sequence": "QVQLVESGGGLVQAGGSLRLSCASSGSIFLYNAMGWYRQAPGKERELVAVINGRGGTYYADSVKGRFTISRDNAKNTVYLQMNSLKPEDTAVYYCATGFPPSAWYDSVRFEDRDSWGQGTQVTVSS", "polyreactivity (PSR sort gate)": "low polyreactivity"},
      {"sequence": "QVQLVESGGGLVQAGGSLRLSCASSGSIININVMGWYRQAPGKERELVAAINSGTSTYYADSVKGRFTFSRDNAKITVYLKMNSLKPEDTAVYYCAARNLFTGRRLFYFWGQGTQVTVSS", "polyreactivity (PSR sort gate)": "low polyreactivity"},
      {"sequence": "QVQLVESGGGLVQAGGSLRLSCASSGSKLGINVMGWYRQAPGKERELVAAISRRGGSTNYADSVKGRFTISRDNAKNTVYLQMNSLKPEDTAVYYCNALGHVQGYDYWGQGTQVTVSS", "polyreactivity (PSR sort gate)": "high polyreactivity"},
      {"sequence": "QVQLVESGGGLVQAGGSLRLSCASSGSTFEANAMGWSRQAPGKDRELVAAISSRGGSTYYADSVKGRFTISRDNGKNTVYFQRNSLKPEDTAVYYCAALLRSGGEYDYWGQGTQVTVSS", "polyreactivity (PSR sort gate)": "high polyreactivity"}
    ]}
  ]
}
